± gives the standard deviation of the averaged measurements.
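Further: PSI is a weighted mean of sequencing reads over stability bins, variants kept only with over 10 reads, mCherry proximal and sfGFP distal, peptide attached via GGGS linker.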

The test system of the data set is Saccharomyces cerevisiae. In words: protein stability index of tFT-peptide fusion (C-terminal peptide) (PSI (0-1 scale)); higher = more stable (slower turnover). As to conditions: genetic background: wild type; temperature: 30 C. The method, then:
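Multiplexed protein stability (MPS) profiling in S. cerevisiae. Random 12-aa peptides (tFT-X12 library) are fused to the C-terminus of a sfGFP-mCherry tandem fluorescent timer, after mCherry and a GGGS linker. Cells are FACS-sorted into 8 mCherry/sfGFP bins and deep-sequenced. The protein stability index (PSI) is the read-weighted bin average, scaled from 0 (unstable) to 1 (stable). Only peptides with >10 reads are reported; cells were grown at 30 °C in SC-His with glucose.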
Take GRFVVHEEVWFV: the protein stability index stood at 0.6958 ± 0.0035.

For the sequence GRGACHSRGNQP, the protein stability index amounted to 0.668 ± 0.014.

GRGGARARRRVL registered a protein stability index of 0.687 ± 0.071. Under GRGGEVALWRGV stands 0.6479 ± 0.0014; under GRGGGGVEPCFV, 0.669 ± 0.07.

GRGICFGLPFLR came in with a protein stability index of 0.683 ± 0.039.

Consider GRGLAEGRRITR, for which the protein stability index stood at 0.638 ± 0.062. As to GRGLVDLLCGWV, the protein stability index amounted to 0.683 ± 0.074. GRGRCRGGVAVE displayed a protein stability index of 0.751 ± 0.23. Consider GRGSAGPARVST, for which the protein stability index worked out at 0.697 ± 0.024.

With GRGSGRCVVYWG, the protein stability index turned out to be 0.651 ± 0.069. GRGVAPQGAVDA had a protein stability index of 0.714 ± 0.027.

GRKGARESSNEI: the protein stability index came out at 0.667 ± 0.0075. In the case of GRKNPPGTTDES, the protein stability index was determined as 0.725 ± 0.073. GRKSSITLLHTL had a protein stability index of 0.58 ± 0.043. In the case of GRLFLHPSLLAS, the protein stability index was 0.596 ± 0.062. The result for GRLIGICECLSV reads 0.622 ± 0.017; that for GRLIRYGSLPSP, 0.729 ± 0.032. As for GRLLVSVFEVVH, the protein stability index was determined as 0.614 ± 0.14. GRMGGWCVSGEV returned a protein stability index of 0.658 ± 0.017. Turning to GRNIIARLNNMT, the protein stability index stood at 0.5748 ± 0.0047. As for GRNLFGLLWARP, the protein stability index worked out at 0.721 ± 0.0094.

Regarding GRRERSGKGKER, the protein stability index came to 0.804 ± 0.14. GRRGWFESSIRR gave a protein stability index of 0.731 ± 0.014.

With GRRPRRLNKDVQ, the protein stability index amounted to 0.614 ± 0.025. Sequence GRRRARPISRGT displayed a protein stability index of 0.681 ± 0.047. Sequence GRRRSRGRPIDL showed a protein stability index of 0.754 ± 0.03. Take GRRRTFGRSRGG: the protein stability index stood at 0.651 ± 0.029. Under GRRVKTVNSLGL stands 0.709 ± 0.061.

Regarding GRRWKQHPGWVS, the protein stability index was determined as 0.573 ± 0.051. The sequence GRSGSVGGIRGR returned a protein stability index of 0.727 ± 0.04. GRSGWFGSEGVR registered a protein stability index of 0.803 ± 0.12. The result for GRSHYFLSILRI reads 0.5268 ± 0.0018; that for GRSIGVGGGGRG, 0.719 ± 0.059. Sequence GRSLGTPRYHPG registered a protein stability index of 0.713 ± 0.016.

GRSRGEGVRRNH: the protein stability index worked out at 0.583 ± 0.042. Under GRSYCTLVFVWK stands 0.582 ± 0.011. Sequence GRTDKKKFISGL showed a protein stability index of 0.608 ± 0.029. GRTENKKPSIKL gave a protein stability index of 0.711 ± 0.058. In turn, GRVFDTNGIGLG came in with a protein stability index of 0.694 ± 0.074. GRVIVCLSWGRL came in with a protein stability index of 0.591 ± 0.019. Regarding GRVKEKCKRRYR, the protein stability index was found to be 0.657 ± 0.034. The sequence GRVLSEAWSEAF had a protein stability index of 0.664 ± 0.054. For GRVPSPDIGLPA, the protein stability index amounted to 0.672 ± 0.022.

GRVSFFDYSRER: the protein stability index stood at 0.704 ± 0.06. For the sequence GRWRVEYWGFGG, the protein stability index stood at 0.722 ± 0.025. GRYYVPGLAALV yielded a protein stability index of 0.653 ± 0.0085. As to GSAACPVRGRFF, the protein stability index is 0.639 ± 0.095. Sequence GSCFLLSLVSFI returned a protein stability index of 0.56199 ± 0.00047.

GSDHIRQRNRME: the protein stability index was found to be 0.716 ± 0.025. GSDPPAPLRHPR showed a protein stability index of 0.709 ± 0.19. Sequence GSDVPCFLSLSY displayed a protein stability index of 0.711 ± 0.02. As for GSDWGYDSGLKG, the protein stability index was 0.765 ± 0.044. The result for GSEVWGSPGFGG reads 0.803 ± 0.0083. The result for GSFPNSADQTFD reads 0.659 ± 0.014; that for GSGGGVRRTIML, 0.739 ± 0.022; that for GSGGSGLLLVEW, 0.763 ± 0.02.

GSGKHVGYIRVK displayed a protein stability index of 0.656 ± 0.0082. GSGLWAGLWRAW displayed a protein stability index of 0.727 ± 0.078. Turning to GSGRLGGDRVVG, the protein stability index amounted to 0.6578 ± 0.0029. For the sequence GSGRSGSRFLPV, the protein stability index is 0.6606 ± 0.0057. GSGVGACRGVKV came in with a protein stability index of 0.685 ± 0.034. Turning to GSGYRPRVESWI, the protein stability index worked out at 0.681 ± 0.0079. GSKLTLRLSEHF: the protein stability index was determined as 0.686 ± 0.025.

The values above are taken from the supplement of paper PMC10724198.
